Measured values reported in patent US20090203140.

What was measured:
Test in all cases: cell_activity
ZFN 12805 golden = conditions: pair 04.05 (with 12804), 5 ng mRNA
ZFN 12806 golden = conditions: pair 04.06 (with 12804), 5 ng mRNA
ZFN 12776 golden = conditions: pair 75.76 (with 12775), 7 ng mRNA, golden b1 heterozygous embryos
ZFN 13370 notail = conditions: pair ntl_68 (inferred with 13368), 5 ng mRNA; 16% in pair ntl_78
ZFN 12775 golden = conditions: pair 75.76 (with 12776), 7 ng mRNA, golden b1 heterozygous embryos
ZFN 13368 notail = conditions: pair ntl_68 (inferred 13368 with 13370), 5 ng mRNA, ntl b195 het x wildtype cross
ZFN 12804 golden = conditions: pair 04.05 (with 12805), 5 ng mRNA; also 32% in pair 04.06

## ACCGTCTGGATGAACCACGGCAGGCCCA (double strand) [golden 12805 target]
ZFN 12805 golden
  activity (% embryos with unpigmented eye clones): 32

## ACCGTCTGGATGAACCACGGCAGGCCCA (double strand) [golden 12806 target]
ZFN 12806 golden
  activity (% embryos with unpigmented eye clones): 32

## ATGCACAGCAGGTTATAGACAGCAGAAC (double strand) [golden 12776 target]
ZFN 12776 golden
  activity (% embryos with unpigmented eye clones): 23

## GCATTAGGGTCGAGACCGGTGACACTGG (double strand) [no tail 13370 target]
ZFN 13370 notail
  activity (% no tail-like embryos): 27

## GTGCAGCGTGCGGCCTGCTGTCCTCTGC (double strand) [golden 12775 target]
ZFN 12775 golden
  activity (% embryos with unpigmented eye clones): 23

## TGTACTCGGTCCTGCTGGATTTTGTGGC (double strand) [no tail 13368 target]
ZFN 13368 notail
  activity (% no tail-like embryos): 27

## TTGTTGACGTGGGCTCCCCGGTGGATGT (double strand) [golden 12804 target]
ZFN 12804 golden
  activity (% embryos with unpigmented eye clones): 32
